From patent US20250002585A1

Target: human PD-L1 on PD-L1 aAPC/CHO-K1 cells (human) (UniProt Q9NZQ7)
Sequence (Q9NZQ7 19-290): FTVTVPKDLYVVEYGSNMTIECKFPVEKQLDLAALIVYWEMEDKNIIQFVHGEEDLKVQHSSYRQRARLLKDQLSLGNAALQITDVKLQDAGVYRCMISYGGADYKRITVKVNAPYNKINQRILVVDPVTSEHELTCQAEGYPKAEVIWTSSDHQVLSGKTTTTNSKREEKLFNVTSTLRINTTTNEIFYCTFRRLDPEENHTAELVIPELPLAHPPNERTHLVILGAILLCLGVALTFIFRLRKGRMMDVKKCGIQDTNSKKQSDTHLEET

- EC50 (read off the curve), fold induction, PD1/PD-L1 blockade cell bioassay: 0.5 nM
Substance: Atezolizumab (antibody)
